From PMC9940316

What was measured:
[1] = target: rabbit polyclonal anti-BSA antibody (IgG) (rabbit) (UniProt P01870); assay: SPR; pH 4.6
[2] = target: rabbit polyclonal anti-BSA antibody (IgG) (rabbit) (UniProt P01870); assay: SPR; pH 4.0
[3] = target: rabbit polyclonal anti-BSA antibody (IgG) (rabbit) (UniProt P01870); assay: SPR; pH 7.5
[4] = target: human plasma IgG4 (human); assay: SPR; BIAcore 3000; human IgG subclass immobilised on CM5 chip by amine coupling (200-1000 RU); FcγRI mutants as analytes; steady-state fitting
[5] = target: human plasma IgG3 (human); assay: as above
human IgG2 (human) [6] = assay: as above
[7] = target: human plasma IgG4 (human); assay: SPR; BIAcore 3000; human IgG subclass immobilised on CM5 chip by amine coupling (200-1000 RU); wild type FcγRI as analyte; kinetic curve fitting
[8] = target: human plasma IgG3 (human); assay: as above
human IgG2 (human) [9] = assay: as above
[10] = target: VRC01, human IgG1 isotype anti-gp120 antibody, wildtype (human); assay: BLI; Octet R8; VRC01 or D265R mutant captured on Protein A biosensors (~5 nm); serial dilutions of FcγRI (Zymogenetics); 10mM Hepes pH7.5, 0.15M NaCl; 1:1 binding model
[11] = target: VRC01 D265R mutant antibody (human); assay: as above
Sequence of VRC01 D265R mutant antibody (human) (light, as listed by the source, chain 2 of 2, other chains not shown): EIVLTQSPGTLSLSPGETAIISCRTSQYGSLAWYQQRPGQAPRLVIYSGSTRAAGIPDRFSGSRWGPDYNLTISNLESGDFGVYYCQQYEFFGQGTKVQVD

Sequence of recombinant human FcγRI, wildtype (P12314 21-282): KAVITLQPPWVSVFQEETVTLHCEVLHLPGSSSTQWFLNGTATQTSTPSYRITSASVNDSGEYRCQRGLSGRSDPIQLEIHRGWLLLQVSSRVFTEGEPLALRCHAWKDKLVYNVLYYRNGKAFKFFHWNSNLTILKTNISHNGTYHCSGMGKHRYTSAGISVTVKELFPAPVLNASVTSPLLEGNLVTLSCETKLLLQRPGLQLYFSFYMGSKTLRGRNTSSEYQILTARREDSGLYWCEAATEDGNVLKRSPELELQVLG
Sequence of rabbit polyclonal anti-BSA antibody (IgG) (rabbit) (P01870 whole entry, looked up): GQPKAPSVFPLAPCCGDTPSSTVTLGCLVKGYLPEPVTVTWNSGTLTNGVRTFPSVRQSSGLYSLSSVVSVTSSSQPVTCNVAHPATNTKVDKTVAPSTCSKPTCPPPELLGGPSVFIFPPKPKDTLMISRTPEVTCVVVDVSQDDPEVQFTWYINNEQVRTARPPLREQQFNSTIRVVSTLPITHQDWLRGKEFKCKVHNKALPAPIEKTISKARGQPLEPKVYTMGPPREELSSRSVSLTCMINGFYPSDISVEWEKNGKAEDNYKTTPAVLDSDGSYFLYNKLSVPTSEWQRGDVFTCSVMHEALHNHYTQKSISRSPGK
Sequence of VRC01, human IgG1 isotype anti-gp120 antibody, wildtype (human) (light, as listed by the source, chain 2 of 2, other chains not shown): as the sequence (light, as listed by the source, chain 2 of 2, other chains not shown) above

Q: What does the source list for BSA?
A: Kd [1]: 10.1 nM; Kd [2]: 1.8 nM; Kd [3]: 7.8 nM

Q: What does the source list for “FcγRI H174R variant (bovine FG-loop variant of human FcγRI) (from UniProt P12314 21-282) (receptor)”?
A: Kd [4]: 109 nM; Kd [5]: 24.2 nM; Kd (human IgG2 (human) [6]): 32.8 nM

Q: Which results are given for “recombinant human FcγRI, wildtype (from UniProt P12314 21-282) (receptor)”?
A: Kd [7]: 65.7 nM; Kd [8]: 28.6 nM; Kd (human IgG2 (human) [9]): 41 nM; Kd [10]: 12 nM; Kd [11]: 1160 nM
